Measurements from article PMC9192595, “Dynamic interaction of BRCA2 with telomeric G-quadruplexes underlies telomere replication homeostasis”.

Columns and labels:
BRCA2OB [1] = target: T1, BRCA2OB (human, UniProt P51587 2665-3197); assay: EMSA; 100 mM KCl; EMSA: 10 nM probe, 50 mM Tris-HCl pH 7.5, 100 mM KCl, 2 mM b-ME, 10% glycerol, probe pre-incubated 37 C, gel 4 C (RAD51: +1 mM MgCl2, 2 mM ATP); smFRET: 50 mM Tris-HCl pH 7.9, 100 mM KCl, 20 mM NaCl, 1 mM DTT, 0.1 mg/ml BSA, 9% glycerol, 37 C; details: protein: recombinant; tags: N-MBP, C-6xHis; label: 5' 32P; intramolecular G4
T1 sequence: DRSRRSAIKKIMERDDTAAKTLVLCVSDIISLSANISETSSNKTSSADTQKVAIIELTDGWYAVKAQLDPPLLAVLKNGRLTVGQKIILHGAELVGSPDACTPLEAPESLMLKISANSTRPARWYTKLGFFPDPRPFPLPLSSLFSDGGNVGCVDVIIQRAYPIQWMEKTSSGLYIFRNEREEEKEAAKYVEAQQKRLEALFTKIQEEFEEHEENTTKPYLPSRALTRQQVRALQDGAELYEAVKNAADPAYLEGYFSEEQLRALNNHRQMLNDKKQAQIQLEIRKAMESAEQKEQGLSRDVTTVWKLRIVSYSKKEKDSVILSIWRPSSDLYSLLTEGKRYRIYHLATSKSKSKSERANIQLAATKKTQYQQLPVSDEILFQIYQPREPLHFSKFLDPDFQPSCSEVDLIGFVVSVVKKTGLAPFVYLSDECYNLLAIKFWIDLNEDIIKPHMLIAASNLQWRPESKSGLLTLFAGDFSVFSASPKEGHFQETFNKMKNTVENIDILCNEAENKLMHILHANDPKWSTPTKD

POT1OB = target: T2, POT1OB (human, UniProt Q9NUX5 10-278); assay: as above; details: protein: recombinant, tags: N-MBP, C-6xHis, label: 5' 32P
T2 sequence: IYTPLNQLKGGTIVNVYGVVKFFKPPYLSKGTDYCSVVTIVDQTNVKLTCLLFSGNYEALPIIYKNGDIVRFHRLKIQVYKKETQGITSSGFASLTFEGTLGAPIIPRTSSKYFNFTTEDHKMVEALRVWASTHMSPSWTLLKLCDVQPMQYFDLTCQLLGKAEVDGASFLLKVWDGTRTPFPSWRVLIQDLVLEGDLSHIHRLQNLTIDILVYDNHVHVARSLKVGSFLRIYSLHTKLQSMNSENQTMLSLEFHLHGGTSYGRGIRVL

RAD51 [2] = target: T3, RAD51 (human, UniProt Q06609 1-339); assay: EMSA; 250 nM RAD51, 2 mM ATP, no BRCA2OB; EMSA: 10 nM probe, 50 mM Tris-HCl pH 7.5, 100 mM KCl, 2 mM b-ME, 10% glycerol, probe pre-incubated 37 C, gel 4 C (RAD51: +1 mM MgCl2, 2 mM ATP); smFRET: 50 mM Tris-HCl pH 7.9, 100 mM KCl, 20 mM NaCl, 1 mM DTT, 0.1 mg/ml BSA, 9% glycerol, 37 C; details: protein: commercial; label: 5' 32P; intramolecular G4 (dynamic)
BRCA2OB [3] = target: T1, BRCA2OB; assay: EMSA; 100 mM KCl; rough estimate, max protein 1 uM; EMSA: 10 nM probe, 50 mM Tris-HCl pH 7.5, 100 mM KCl, 2 mM b-ME, 10% glycerol, probe pre-incubated 37 C, gel 4 C (RAD51: +1 mM MgCl2, 2 mM ATP); smFRET: 50 mM Tris-HCl pH 7.9, 100 mM KCl, 20 mM NaCl, 1 mM DTT, 0.1 mg/ml BSA, 9% glycerol, 37 C; details: protein: recombinant; tags: N-MBP, C-6xHis; label: 5' 32P; intramolecular G4 (dynamic)
BRCA2OB [4] = target: T1, BRCA2OB; assay: EMSA; 100 mM KCl; EMSA: 10 nM probe, 50 mM Tris-HCl pH 7.5, 100 mM KCl, 2 mM b-ME, 10% glycerol, probe pre-incubated 37 C, gel 4 C (RAD51: +1 mM MgCl2, 2 mM ATP); smFRET: 50 mM Tris-HCl pH 7.9, 100 mM KCl, 20 mM NaCl, 1 mM DTT, 0.1 mg/ml BSA, 9% glycerol, 37 C; details: protein: recombinant; tags: N-MBP, C-6xHis; label: 5' 32P; intramolecular G4; remark: listed apart in the source
BRCA2OB [5] = target: T1, BRCA2OB; assay: as above; details: protein: recombinant; tags: N-MBP, C-6xHis; label: 5' 32P; intramolecular G4; remark: listed apart in the source
RAD51 [6] = target: T3, RAD51; assay: EMSA; ATP; facilitated by BRCA2OB, about constant with dose; EMSA: 10 nM probe, 50 mM Tris-HCl pH 7.5, 100 mM KCl, 2 mM b-ME, 10% glycerol, probe pre-incubated 37 C, gel 4 C (RAD51: +1 mM MgCl2, 2 mM ATP); smFRET: 50 mM Tris-HCl pH 7.9, 100 mM KCl, 20 mM NaCl, 1 mM DTT, 0.1 mg/ml BSA, 9% glycerol, 37 C; details: protein: commercial; label: 5' 32P; intramolecular G4
BRCA2OB [7] = target: T1, BRCA2OB; assay: EMSA; 100 mM KCl; EMSA: 10 nM probe, 50 mM Tris-HCl pH 7.5, 100 mM KCl, 2 mM b-ME, 10% glycerol, probe pre-incubated 37 C, gel 4 C (RAD51: +1 mM MgCl2, 2 mM ATP); smFRET: 50 mM Tris-HCl pH 7.9, 100 mM KCl, 20 mM NaCl, 1 mM DTT, 0.1 mg/ml BSA, 9% glycerol, 37 C; details: protein: recombinant; tags: N-MBP, C-6xHis; label: 5' 32P; G-triplex / G3:G4

T3 sequence (Q06609 whole entry): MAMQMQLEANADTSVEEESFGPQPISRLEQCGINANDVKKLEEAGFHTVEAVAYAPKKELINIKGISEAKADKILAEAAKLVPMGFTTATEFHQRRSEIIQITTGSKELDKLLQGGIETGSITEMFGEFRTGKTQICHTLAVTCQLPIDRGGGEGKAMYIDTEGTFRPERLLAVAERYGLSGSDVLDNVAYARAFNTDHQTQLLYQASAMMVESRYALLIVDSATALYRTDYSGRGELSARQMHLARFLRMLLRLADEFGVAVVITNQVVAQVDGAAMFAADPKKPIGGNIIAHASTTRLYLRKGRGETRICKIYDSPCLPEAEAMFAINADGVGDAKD

## GGTTTGGGTTGGGTTGGGTTGGGTTTG (structured_DNA) [TelG5TT]
BRCA2OB [1]
  binding signal: 13 fold vs TelG5

## GGTTAGGGTTAGGGTTAGGGTTAGGGTTAG (structured_DNA) [TelG5]
POT1OB; intramolecular G4 (dynamic)
  binding result: binds
RAD51 [2]
  binding result: binds
BRCA2OB [3]
  Kd: 4400 nM

## GGTTTGGGTTTGGGTTTGGGTTTGGGTTTG (structured_DNA) [TelG5TTT]
BRCA2OB [4]
  Kd: 456 nM
POT1OB; intramolecular G4
  binding result: no binding
BRCA2OB [5]
  binding signal: ~9 fold vs TelG5
RAD51 [6]
  binding result: binds

## GGTTAGGGTTAGGGTTAGTGTTAGGGTTAG (structured_DNA) [TelG5-G3]
BRCA2OB [7]
  binding signal: 3 fold vs TelG5
